Test results: publication PMC10102533

Legend:
[1] = molecular target: mouse IgG2a-Fc (Fc only) (mouse); assay: SDS-PAGE and Western blot with or without reducing agent
[2] = molecular target: PGLYRP1-mIgG1-Fc (not stated | mouse); assay: as above

| stoichiometry N [1] | stoichiometry N [2] | Substance |
| --- | --- | --- |
| 2 |  | mouse IgG2a-Fc (Fc only) (domain or fragment) |
|  | 2 | PGLYRP1-mIgG1-Fc (Fc fusion) |
